Earlier results on one substance are cited in publication PMC8257665.

Series [1] has as its target Glu143 (UniProt position 143, FGYMGEAGIMA). The note with it: ground (dark) state GPR implied; not stated explicitly.
The target of series [2] is Glu109 (UniProt position 109, PLLICEFYLIL). The settings on record: ground (dark) state GPR implied; not stated explicitly.

For “Green-light absorbing proteorhodopsin (GPR) (uncultured marine gamma-proteobacterium (the article says only 'marine γ-proteobacteria'))”, the pKa in series [1] was above 9.0; in series [2], above 8.5.

The pKa is the pH at which an ionisable group is half protonated.
